# Measured values as given in patent publication US20140341937A1 (US Dept. of Health and Human Services, published 2014).
# T1: CCR4 (human, UniProt P51679 1-360)
# T1 construct: whole, on cells; also called human CCR4; CCR4 on CEM cells
# T1 sequence (looked up): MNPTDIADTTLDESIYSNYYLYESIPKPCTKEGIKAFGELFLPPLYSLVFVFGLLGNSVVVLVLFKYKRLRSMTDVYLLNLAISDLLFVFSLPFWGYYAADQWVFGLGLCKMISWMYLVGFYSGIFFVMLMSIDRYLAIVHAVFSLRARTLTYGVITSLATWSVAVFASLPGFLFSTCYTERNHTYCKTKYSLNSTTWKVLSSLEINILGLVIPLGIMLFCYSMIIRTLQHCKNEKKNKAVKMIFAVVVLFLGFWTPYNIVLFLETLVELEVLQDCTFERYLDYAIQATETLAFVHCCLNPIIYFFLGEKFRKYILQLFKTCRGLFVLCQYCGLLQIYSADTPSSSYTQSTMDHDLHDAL
# B1: eosinophil-derived neurotoxin (EDN) (enzyme, human, UniProt P10153 28-161, looked up)
# chain: KPPQFTWAQWFETQHINMTSQQCTNAMQVINNYQRRCKNQNTFLLTTFANVVNVCGNPNMTCPSNKTRKNCHHSGSQVPLIHCNLTTPSPQNISNCRYAQTPANMFYIVACDNRDQRRDPPQYPVVPVHLDRII
# notes: Unfused control protein; also called EDN alone; toxin alone
# Tests used:
# CCR8 = target: T2, CCR8 (human, UniProt P51685 1-355); experiment: flow cytometry on receptor-expressing cells
# T2 construct: whole, on cells; also called human CCR8; HEK/CCR8
# T2 sequence (P51685 whole entry): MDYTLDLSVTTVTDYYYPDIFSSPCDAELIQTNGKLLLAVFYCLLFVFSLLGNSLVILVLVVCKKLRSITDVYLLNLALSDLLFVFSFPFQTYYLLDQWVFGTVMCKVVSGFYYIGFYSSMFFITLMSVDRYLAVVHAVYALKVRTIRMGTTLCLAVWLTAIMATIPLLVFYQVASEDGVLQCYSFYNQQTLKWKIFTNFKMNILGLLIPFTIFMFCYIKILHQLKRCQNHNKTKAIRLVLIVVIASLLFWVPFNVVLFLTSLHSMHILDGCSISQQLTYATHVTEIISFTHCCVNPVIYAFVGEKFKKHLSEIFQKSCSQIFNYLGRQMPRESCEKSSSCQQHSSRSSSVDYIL
# CCR4 = target: T1, CCR4; experiment: flow cytometry on CEM cells, anti-EDN antibody detection
binder,measurement,setting,value
B1,binding result,CCR8,no binding
same,binding result,CCR4,no binding (tested: 50 µg/ml)
